Reference: the DeepSol protein solubility set

Test: soluble on expression in E. coli; label from the status in PepcDB or PDB records

Soluble on expression in E. coli, soluble:
MSGTEEAILGGRDSHPAAGGGSVLCFGQCQYTAEEYQAIQKALRQRLGPEYISSRMAGGGQKVCYIEGHRVINLANEMFGYNGWAHSITQQNVDFVDLNNGKFYVGVCAFVRVQLKDGSYHEDVGYGVSEGLKSKALSLEKARKEAVTDGLKRALRSFGNALGNCILDKDYLRSLNKLPRQLPLEVDLTKAKRQDLEPSVEEARYNSCRPNM
MGHHHHHHSHMQSCESSGDSADDPLSRGLRRRGQPRVVVIGAGLAGLAAAKALLEQGFTDVTVLEASSHIGGRVQSVKLGHATFELGATWIHGSHGNPIYHLAEANGLLEETTDGERSVGRISLYSKNGVACYLTNHGRRIPKDVVEEFSDLYNEVYNLTQEFFRHDKPVNAESQNSVGVFTREEVRNRIRNDPDDPEATKRLKLAMIQQYLKVESCESSSHSMDEVSLSAFGEWTEIPGAHHIIPSGFMRVVELLAEGIPAHVIQLGKPVRCIHWDQASARPRGPEIEPRGEGDHNHDTGEGGQGGEEPRGGRWDEDEQWSVVVECEDCELIPADHVIVTVSLGVLKRQYTSFFRPGLPTEKVAAIHRLGIGTTDKIFLEFEEPFWGPECNSLQFVWEDEAESHTLTYPPELWYRKICGFDVLYPPERYGHVLSGWICGEEALVMEKCDDEAVAEICTEMLRQFTGNPNIPKPRRILRSAWGSNPYFRGSYSYTQVGSSGADVEKLAKPLPYTESSKTAPMQVLFSGEATHRKYYSTTHGALLSGQREAARLIEMYRDLFQQGT
MGGDRAPDEILKGALLASKEVEGEIVLIGPEEIVKNKGLPFVSASEIVKMDDPPLEVLRKKNSSMHMGLKLLSEGKVDAFVSAGATGPLFLGATSIVGKLEGIERPALGVAVPSLKGATVLIDAGANAKVRPEHLVDFAFMGIAYSKVLGAENPRVGLLNMGSEENKGPDDIKRAYQLLKEFLGDTFFGNVEGHDINLGTVDVVVADGFSGNVALKTMEGTAKLVTSVLKESIKDGGFLSLLGALLMKRSFDKMKEKLDPRSYGGTFILGVKGIVVKAHGSSDAKAIKHAIKVAEKGIRVNIVQEIERGISHVRNSGDGR

Soluble on expression in E. coli, not soluble:
MAHHHHHHMLRDELPPEKGQQSFSLWSRILRSIDGCKLEIVLDDQTEADKIKVVDIYDKVSERFPLYSWKEPVKGRVVVTPTGSSYSHQGVVVELIGVASTFREVESRVVFLRQERQFEPDTLNQSTPFEFTFSAPKEHESYHGIYARVRYFVQATVKQRIKSPSVKEEVWVHRVDTALSESQTDASAHMNYFRETCFGPESIAMNVGVDNVLHIEFRYDKKIFHLAERVLGKVEYKVADMDIAYGEVGLVRKEFLAPGQTDETMESETLQKFEIMDGTPIVEEVVPIRLYLKSVPRLTPSYMDVENLFSVRYFLNLVLVNQEGKRYFKQQEIQLYRRTGQERSATSFNSGLPVTPASGDVDAKGGWSA
MSLSVTRENFDEWMVPVYVPAPFIPVRGEGSRLWDQQGKEYIDFAGGIAVNALGHAHPALREALNEQANRFWHIGNGYTNEPALRLAKKLIDATFAERVFFCNSGAEANEAALKLARKYAHDRVGNHKSGIVAFKNAFHGRTLFTVSAGGQPTYSQDFAPLPPDIRHAAYNDLNSASALIDDNTCAVIVEPVQGEGGVIPATKAFLQGLRELCDRHQALLIFDEVQTGVGRTGELYAYMHYGVTPDILTTAKALGGGFPIGAMLTTQDYASVMTPGTHGTTYGGNPLATAVAGKVLDIINTPEMQNGVRQRHDAFIERLNTLNVRFGMFSEIRGLGLLLGCVLQTEFAGKAKLIAQEAAKAGVMVLIAGGDVVRFAPALNVSDEEIATGLDRFALACERLQTGGVPCG
MGSDKIHHHHHHMLDKKTNIATDDPKAWLAQHGINEVECLVPDMNGVLRGKALPTAKFLKALEDRALYLPSSAFLVSIDGRYSGSIDEGFAYSDPDMRMVPDVSTLCLAPGAGAGKAYVFADAFHMDGRPWMASPRHVLRAVLDLYRQRGWRAVVAPEVEFYLTAPNPDPDRPLTAPVGANGRAEGVQHPYDMVALEEFEPVIRRVYDYAAAAGLPLDTLIHESGTAQLEINLLHGDALPLADQVLLFKRLTRQAAQQCGMHATFMAKPIAAQAGSSMHLHMSVVDEAGNALFASDDDADTEMFGHFIGGLQTYVPEIMPLFAPNVNSFRRIRPNHSAPANIEWSHDNRSCGLRVPAGGRSARRVENRLPGADSNPYLAIAGSLLAGYLGVQQKLARSAEASGNAYKIKSTLPKTMEEALDRFTACEPVRKLLGEDFSQTYLRVKSVELDLFQSVVTSWERDHLLLKV
